Assay results as given in the supplement of paper PMC12636428.

These sequences were tested on Saccharomyces cerevisiae (assay: transcriptional activation domain activity (GFP:mCherry ratio, weighted mean of sorted bins, harmonized to initial dataset scale) (arbitrary fluorescence ratio units); higher = stronger transcriptional activation). Details: beta-estradiol 1 µM; induction time 4 h.
Method in brief: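 Protein tiles carrying barcodes and fused to an estradiol-inducible synthetic transcription factor were placed at the URA3 locus of yeast diploids with a GFP reporter. Following 4 hours at 30 °C in SC with 1 uM beta-estradiol, cells were sorted into 8 GFP:mCherry bins, barcodes were sequenced, and tiles with fewer than 50 reads were discarded. Activation activity is given as the read-weighted mean of bin median fluorescence, averaged across barcodes and linearly mapped to the initial dataset scale.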
For “IVCRTEKTSHMLIDFSEHLRINVYVLGATFVRLVHLLKVKIPLVDPVLYIVRF”, the “transcriptional activation domain activity” value was 59900.
With “QPIASCVVKVNFGMISNDSNFCGLVSGIIYVYMGLGGAFMLLVAVCVIKVRYT” the “transcriptional activation domain activity” value was 67700.
“KFPLFMLIAQGSFAFILWCFPFRSFLFIWALLMFTHTPLPSLLLLASCFSFSF” was tested, and the “transcriptional activation domain activity” value was 60100.
With “DLFVSLMANSLTKLGFVPGATVDMKKLTIDIVELIFRWERRRMTGSPSIKPAD” the “transcriptional activation domain activity” value was 45200.
For “KSWYFPSLSFFFFSFLFSFLSFAFLSFFLFFSFPFSLLLLYLFLLGLALTADG”, the “transcriptional activation domain activity” value was 15600.
With “MCVLFGNFFFFLLFSFCFYLFFFLSSFLAPLPAFFLLFCLLMGRKIGVGIIPL” the “transcriptional activation domain activity” value was 40800.
In the case of “SGPRASSGAKAQSLSQRGAKRKAASTARTEGASSSKSSRARGGKARASRVAKT”, the “transcriptional activation domain activity” value is reported as 32900.
With “VCFMGVLIGLLPGTWLCYGSDVCVKGLSSSIISMQLGLLGSLLLILKLVIGVA” the “transcriptional activation domain activity” value was 61700.
For “SSKISCIHHVALKPSSGRYKRVTIIFNIIKAKRHLVTNSLRLMGLLLAIALYI”, the “transcriptional activation domain activity” value was 53000.
“MCTLKLLVLLRIYFPTYISFPFFSPSLLSKCHSFISFSYVPWSLVTFLIYLPS” was tested, and the “transcriptional activation domain activity” value was 75600.
“GKAKASKTAGAGLAKASKAPKVPKAGGKGAKASKGAKAPKASKAAGAAGAKAS” was tested, and the “transcriptional activation domain activity” value was 28400.
In the case of “PAAEEVAAAPAHEEPALPKHEELEIEEADEPVHRAAPAERATAAPAAAPVKAP”, the “transcriptional activation domain activity” value is reported as 29700.
For “MPLQLRCLYNCDVSLIVMLLLGLLLGIFPSLHIEICICSRDLLLICMGMWPVR”, the “transcriptional activation domain activity” value was 45500.
“VGRVTDKSSLVYDWPFDESIERNFSTTATAATGESKFDINDNCNRINSKSYSK” was tested, and the “transcriptional activation domain activity” value was 45900.
“RSSSKKKDASDDEDKHSRRKSSSRKKGSDEEDDKSRHSRSASASKKKDKKSYD” was tested, and the “transcriptional activation domain activity” value was 14300.
With “MNQTRHFFSPFFLFSLFLSFPSFLLSSFLLLFLPFYFSPSYLLLCLFSLIFYK” the “transcriptional activation domain activity” value was 52800.
In the case of “GQVELFTHHTSLRHIFFRLEKLGYRLVVIQLTDSFVISQPSLYISALLLALRG”, the “transcriptional activation domain activity” value is reported as 35400.
In the case of “YFLGIFMYFLYGESVIYYFKHVLLVDRILLPLATHHRFISFMLYLIGFVFFVG”, the “transcriptional activation domain activity” value is reported as 65800.
With “PPYVVAPPVVCPYSPLIILFYMVTYFFLHCFRGLMGWLQFLALLLQSLMVGIP” the “transcriptional activation domain activity” value was 28900.
For “NITKVAERGERLDSLQDKTDNLAVSAQGFRRGANRVRKVSSVVPFIQHSAHKL”, the “transcriptional activation domain activity” value was 22000.
“WDWARRYHCLAWGGEVSLLSFLPLLPVCLLSWLCRVSPIKWALVAVFFFWLLG” was tested, and the “transcriptional activation domain activity” value was 65900.
For “YKTCILPGADPGVNYIVGDDYLAVNYGYYVWQRWINFIAVCLFFLFFTVLTCL”, the “transcriptional activation domain activity” value was 55900.
In the case of “GHDGPQQQQQRKKPAAAAAAGKGKEKGKGKGKGQVVVVASKPAKKAASAAAAA”, the “transcriptional activation domain activity” value is reported as 28700.
For “MPQESKGKASAAAQRAHEKESKRARGALSCAECRRLKLKCDKSVPCSSCVRRG”, the “transcriptional activation domain activity” value was 44700.
With “MASALLDFPYLHLGIPSFLRVNLFLNIHVHFFFVHFCLSPSVRFIFFYFFLYL” the “transcriptional activation domain activity” value was 50300.
“KGVAVADRVVKFVAGYVAYATEQDAAKRPEGEEDVETPSSRFVTKLLRHLLSG” was tested, and the “transcriptional activation domain activity” value was 56400.
“GHSGVSVDMHVSFLNSCREGEKVIIKSVIDKKGSRLAFVRVEIKRERDDAIII” was tested, and the “transcriptional activation domain activity” value was 49500.
With “EGEYKTLATDDLGNILNLNYGETNEVIMNEINDLNLPLGPLSDEKSVKVSTFS” the “transcriptional activation domain activity” value was 84800.
“CPQPLIYCKPCKILQTQYDRLHINHMTFNMISHHLYRGLLPLLVVVCLLGKIV” was tested, and the “transcriptional activation domain activity” value was 62100.
With “LNLGWRLMHFKVHFARIGVIVHGPQYGELTDWDCSSAHRGDILGFPKAQLLFE” the “transcriptional activation domain activity” value was 25100.
In the case of “TYSDVDGEILWPPPVMNVMMIERCGAVCCRVSVGWVLLRRWAQVKRKWETIVL”, the “transcriptional activation domain activity” value is reported as 41700.
With “MGIIIVVCVFFFLTGFLFTLVFLLSLWSLFVFFYFINFSFPLSFALLLLIFFL” the “transcriptional activation domain activity” value was 40500.
For “KGKGRREGGEGGEEREGNRERKRGRGREGKGGKERGNGRGKEGQRKEEREGKG”, the “transcriptional activation domain activity” value was 33500.
With “RKREEEDARVQEAALKEEEDARVREAARKEEEEEAERLKRRREEEDARVQEAA” the “transcriptional activation domain activity” value was 22400.
In the case of “SKHRRRHRSSSRERHRHRERDGEPSSSRHRSRRDRSRSKDRSKKEESHRSHRS”, the “transcriptional activation domain activity” value is reported as 24500.
In the case of “IRGLLILRYQRGYKDLNHCEPQVIFYDRLCGFLVLGWFLHYFPFFLMSRQLFL”, the “transcriptional activation domain activity” value is reported as 88200.
With “IRTLRRSAREVLTVYWVLHGILPFPSIHSLDPYILSRRWSLCLNCLFLYALYF” the “transcriptional activation domain activity” value was 49700.
With “MFGRPYCFGFVVYLFVGCFAVLSVVCSFFFFPLLPLLVVVILLKVVFSFVRAD” the “transcriptional activation domain activity” value was 29100.
In the case of “MNQTSRFFLLFFFFFFFYFFPFSHLLPSFLLLFLSFYFSPSYLLLCLFSLIFY”, the “transcriptional activation domain activity” value is reported as 42600.
“GLLKIVVILPVTDVPLPPYRVTPMFLGGMRDLVTHLLRRTSTILTCDRLWYLW” was tested, and the “transcriptional activation domain activity” value was 28400.
“RLRVLYSAWQLHVDGKVRIGTLAIIGSFKELRYLGGKRTRRCGLVALLLLSAY” was tested, and the “transcriptional activation domain activity” value was 50700.
“GDAPASFHSFCVVRVFMDVCWLGKRLCLKVLNMDPTCPWLMLLLLKATRLHLS” was tested, and the “transcriptional activation domain activity” value was 65300.
“MIIGMWLFCHVGSSFSVYHMFPLLYFRLLLCYLVFWSCFLLTFSKVSFSFLFA” was tested, and the “transcriptional activation domain activity” value was 54400.
For “PDYLFSRLFVCAFISLFVSLSFLQLGNGLRDLQFRVFSIFWVSILPAIIMSQI”, the “transcriptional activation domain activity” value was 52200.
In the case of “ETIHGPAPATSFDDTNFTWQLFDESPGFDPLAQLQSFSDFGLSGHDLLFGFMD”, the “transcriptional activation domain activity” value is reported as 123000.
“FLDLVLPHVGRWSDFVAYIPGVTVVEVNYLLRRLGSPKCGPALLLEKLHLFFF” was tested, and the “transcriptional activation domain activity” value was 54400.
With “MACLFPCMLIFIFLLFISSFFLCFFHSLVSHLPHCVLVLFFISFLLTILTFFF” the “transcriptional activation domain activity” value was 50200.
For “SLLLNDFSELRNGYFTSLFSLSLFLFLFAMPWTLTDITPFLMVLLFYHILFFI”, the “transcriptional activation domain activity” value was 69600.
“AASAEDAVVGEKHKAEEPLDTNGDAKKAKVTNGNGEARKPGRPSKKDKKPQPT” was tested, and the “transcriptional activation domain activity” value was 23100.
With “RSSLSSPPCPRSRRRMRVRSSTTTSTSPPARSSSADRTRPTSTTTAARPPACP” the “transcriptional activation domain activity” value was 22000.
With “FDYMICPVHDLGIPAPLSVFLSTVLNRAVTTIPYAPYQTHLFFLSCFVSLVAP” the “transcriptional activation domain activity” value was 40500.
“ASAAASGASTPATAAPPGGLFGKTPATAAPAAATPAATKSLFPAAATTTAPAA” was tested, and the “transcriptional activation domain activity” value was 45700.
“LACIVVCVIVYVVLTLLPLFYRDCPYLTPMSGPLWRFLQAFQFVSIVSFRRIY” was tested, and the “transcriptional activation domain activity” value was 41900.
For “HVYGPTLVVHRYSLPLLFYYFVLFMFLESLPRLFRCISLFFQLAQLLMLLVPI”, the “transcriptional activation domain activity” value was 34100.
“YVSVNEHGDETDSSFVRLVNLGSSIVIQHITCYLQSRVVFYLMNLHSMPRAIF” was tested, and the “transcriptional activation domain activity” value was 60800.
In the case of “PQYLHLGYLGHHIAIDPIPHPVGTVYLPLPPDTFPTWCTVTACGWILLPLFPL”, the “transcriptional activation domain activity” value is reported as 29000.
“MRRLKFGFFPPHFAGFFLSVVLHIIIVYNLWVPFVLLFLLISFLSFLSCIQSF” was tested, and the “transcriptional activation domain activity” value was 54200.
“MFIFFKILILILLINIISITSFRLGAMLHYCIGHWDCMGNYLDCVFRLGFLFI” was tested, and the “transcriptional activation domain activity” value was 59000.
“TMDKQIKYFWSSPCKFISLIYFANRYIGILEAISEIARLGFIWLQNLADILLM” was tested, and the “transcriptional activation domain activity” value was 43800.
In the case of “RHLSIRLCEIGLIIFAHGLHVHNAYSHLYICLHVVTSRYLYGSHCMVCQLLFY”, the “transcriptional activation domain activity” value is reported as 75800.
For “VSAARKRWIAMVWLFTWWIPTYLLVCCGMKRQDIRMAWREKVAICIVIFWISA”, the “transcriptional activation domain activity” value was 56200.
In the case of “EEKAAGRSAASGGAEGEGKKRKAEGGEGAAGEEKKEKKKGRTYRQREPLAAGG”, the “transcriptional activation domain activity” value is reported as 54900.
In the case of “IMTLFYSAQRHLNKLILATKIAAGVWPPPDAMAQLRFQIGQLLIFMQTFVSQC”, the “transcriptional activation domain activity” value is reported as 67400.
With “MMKTLAQMYPLASFSLFQGLKFFILLALMNECLLLCTALRRWLICTQLPGIYF” the “transcriptional activation domain activity” value was 49200.
For “MAPTKAVAPAPAAAADGTVKRGRGRPPKDPSERKPKPEPSGRPRGRPKGSGGV”, the “transcriptional activation domain activity” value was 33400.
With “VNDIYDSSRSRACNACRNSKVRCEQPRPDHPCKRCAKARRECVSSTRGHKRRR” the “transcriptional activation domain activity” value was less than 6570.
For “MSLVLLLFCLYLRCYSVLAMANGVSVLNAADYPFSVMITKPVMCGGALISLDP”, the “transcriptional activation domain activity” value was 69000.
“FLLLFFFFVYFHLSFSFLTFLLSPLFVFIFMFYFGSFIFLPLSLFLFSLLFFS” was tested, and the “transcriptional activation domain activity” value was 66100.
“NLHNASTSSFNNEAFWKPLDSAIDHHSGDTNPNSNMNTTPNGNLSLDWLNLNL” was tested, and the “transcriptional activation domain activity” value was 84600.
For “EAEAGADGSEGGEDDGREKEEVEEEGGEEEGGEEEGREDDDTKAEAEAEELSE”, the “transcriptional activation domain activity” value was 26600.
In the case of “ALNTFLDGLVFQLFPMVADLWIAAAYFFVVFDAYYSLMVISVTWFYIWMTIYM”, the “transcriptional activation domain activity” value is reported as 55200.
For “MNGGNGFGFWFGVWFWLGIYILSLFFFFFSFSFLLLCVFVSFHSLVFFFFFFS”, the “transcriptional activation domain activity” value was 53300.
“EETVTAEPAAVEEKDGGDDAMAIDTEEPKKKSKKDKKDKKRKAAAETTTATGT” was tested, and the “transcriptional activation domain activity” value was 40600.
“MSLASLAAQRSNCMKRAVGCVLVGRERRVISTGYNGTPRGIRNCGEGGCARCN” was tested, and the “transcriptional activation domain activity” value was 44500.
In the case of “AAQRSVMLGHNLVTLEDILMTQRKWRAVLHETFYVRWIAVLRRWLCRLLDWPV”, the “transcriptional activation domain activity” value is reported as 42900.
For “LAMQGFFRTFGLLCINFDSAFRLATFFLPNMIQYTGYLIPTFQMKRWLFWISY”, the “transcriptional activation domain activity” value was 43200.
In the case of “LLYALMNFSRIFSSGHSFGRKIIMFFEFVYLLLNFLFGFVSLGHFYFAFHFLI”, the “transcriptional activation domain activity” value is reported as 37000.
In the case of “ELLCIDRETGETRFVEPKVPDGISLRNFGIQVVSSCVLLLLVSLRPPHVLCAC”, the “transcriptional activation domain activity” value is reported as 53600.
For “MPPQSRQSRMPEAPAEPRSARGRVTKRRSGNACVRCRRQKIKCSGSHPCEACS”, the “transcriptional activation domain activity” value was 24800.
With “ERGTGGQGRRAEEEEAQGGDGGHKTKERGRDEEAGAGGGPAEAGAGAGAKGRT” the “transcriptional activation domain activity” value was 28600.
“MHFAVKVKMQFFFFPSLSFFSSVVFISPPPPFVFLWHMGFLACLLFRSLVVFF” was tested, and the “transcriptional activation domain activity” value was 57000.
With “MPIGCLMRQVHWHRAEMREYQACLLIFQALLCTTGDPFAHILMYMWFGILYRF” the “transcriptional activation domain activity” value was 58800.
In the case of “SFLIGGGSAFWLITYGLFYWASRLSLDSLASVVLYLGYLFLLALFDFLITGTI”, the “transcriptional activation domain activity” value is reported as 36700.
